Measured values: PMC13044988, “Vaspin identified as a DNA‐binding serpin with functional consequences for protease inhibition”

T1: vaspin WT (Homo sapiens, UniProt Q8IW75 21-414)
T1 sequence: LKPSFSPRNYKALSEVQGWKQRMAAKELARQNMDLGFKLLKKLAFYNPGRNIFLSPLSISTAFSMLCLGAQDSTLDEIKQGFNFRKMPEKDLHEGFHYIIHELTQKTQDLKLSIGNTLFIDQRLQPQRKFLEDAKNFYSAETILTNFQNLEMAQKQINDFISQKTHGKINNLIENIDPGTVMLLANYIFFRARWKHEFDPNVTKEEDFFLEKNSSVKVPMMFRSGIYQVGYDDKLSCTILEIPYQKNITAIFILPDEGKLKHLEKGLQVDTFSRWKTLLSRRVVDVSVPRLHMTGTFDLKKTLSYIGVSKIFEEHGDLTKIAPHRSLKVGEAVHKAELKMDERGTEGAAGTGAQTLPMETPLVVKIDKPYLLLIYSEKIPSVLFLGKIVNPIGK

T2: NHB vaspin (nonheparin-binding) (Homo sapiens, UniProt Q8IW75 21-414, K131A;K188A;R211A;K359A;R363A)
T2 sequence: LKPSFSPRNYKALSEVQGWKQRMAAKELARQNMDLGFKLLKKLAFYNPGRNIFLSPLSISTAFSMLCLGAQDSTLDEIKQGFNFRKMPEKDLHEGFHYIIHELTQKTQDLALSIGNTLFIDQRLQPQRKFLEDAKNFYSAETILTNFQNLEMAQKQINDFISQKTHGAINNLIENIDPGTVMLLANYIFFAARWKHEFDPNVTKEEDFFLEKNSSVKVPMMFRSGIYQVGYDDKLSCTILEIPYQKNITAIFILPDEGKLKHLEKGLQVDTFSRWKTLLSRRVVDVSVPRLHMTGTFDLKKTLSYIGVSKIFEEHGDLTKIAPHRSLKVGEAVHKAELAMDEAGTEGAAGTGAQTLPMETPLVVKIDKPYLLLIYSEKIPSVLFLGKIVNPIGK

T3: antichymotrypsin (ACT) (Homo sapiens, UniProt P01011 24-423)
T3 sequence: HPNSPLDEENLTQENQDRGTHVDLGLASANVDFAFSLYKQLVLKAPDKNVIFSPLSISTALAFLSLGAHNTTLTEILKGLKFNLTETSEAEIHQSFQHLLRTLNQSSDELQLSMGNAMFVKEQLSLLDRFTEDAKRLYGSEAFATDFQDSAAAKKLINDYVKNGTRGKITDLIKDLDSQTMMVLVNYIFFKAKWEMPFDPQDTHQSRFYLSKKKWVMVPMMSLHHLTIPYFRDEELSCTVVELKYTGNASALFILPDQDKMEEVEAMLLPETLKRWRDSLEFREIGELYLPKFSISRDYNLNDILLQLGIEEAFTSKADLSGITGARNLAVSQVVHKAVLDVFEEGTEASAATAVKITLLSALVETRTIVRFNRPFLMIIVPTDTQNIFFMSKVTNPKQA

B1: 60 base ssDNA (ssDNA)
DNA: GACGGATCGGGAGATCTCCCGATCCCCTATGGTGCACTCTCAGTACAATCTGCTCTGATG
B2: 20 base ssDNA (ssDNA)
DNA: GACGGATCGGGAGATCTCCC
B3: 120 base ssDNA (ssDNA)
DNA: GACGGATCGGGAGATCTCCCGATCCCCTATGGTGCACTCTCAGTACAATCTGCTCTGATGCCGCATAGTTAAGCCAGTATCTGCTCCCTGCTTGTGTGTTGGAGGTCGCTGAGTAGTGCG

Experiments:
[1] = molecular target: T1, vaspin WT; test: DRaCALA; Buffer 2; DRaCALA: Buffer 2, 20 mM Tris/HCl pH 7.8, 15 mM NaCl, 50 nM labeled ssDNA, 10 min at 20 C; screening also in Buffer 1 (20 mM Tris/HCl pH 7.8, 150 mM NaCl) and Buffer 3 (20 mM Tris/HCl pH 7.8, 15 mM KCl); conditions: protein: recombinant; label: 5'-32P
[2] = molecular target: KLK7 (kallikrein 7) (Homo sapiens, UniProt P49862 30-253); test: as above; conditions: protein: recombinant; label: 5'-32P
[3] = molecular target: T2, NHB vaspin (nonheparin-binding); test: as above; conditions: protein: recombinant; label: 5'-32P
[4] = molecular target: T3, antichymotrypsin (ACT); test: DRaCALA; Buffer 1 (150 mM NaCl), 1 uM protein; DRaCALA: Buffer 2, 20 mM Tris/HCl pH 7.8, 15 mM NaCl, 50 nM labeled ssDNA, 10 min at 20 C; screening also in Buffer 1 (20 mM Tris/HCl pH 7.8, 150 mM NaCl) and Buffer 3 (20 mM Tris/HCl pH 7.8, 15 mM KCl); conditions: label: 5'-32P

Chain of KLK7 (kallikrein 7) (P49862 30-253): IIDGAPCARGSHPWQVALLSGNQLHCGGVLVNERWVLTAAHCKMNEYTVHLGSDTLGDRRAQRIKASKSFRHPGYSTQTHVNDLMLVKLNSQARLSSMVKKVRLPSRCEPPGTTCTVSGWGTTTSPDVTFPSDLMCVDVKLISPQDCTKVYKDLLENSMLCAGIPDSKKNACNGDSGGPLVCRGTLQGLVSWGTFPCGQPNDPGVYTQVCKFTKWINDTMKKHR

Row | Binder | Kd [1] [nM] | Kd [2] [nM] | Kd [3] [nM] | binding result [4]
1 | B1 | 117 | 815 | 188 | no binding
2 | B2 | 59 | 2070 | 269 | –
3 | B3 | 128 | 1070 | 178 | –
